Biological target: T1, plcg1_human PLCG1 (UniProt P19174)
T1 sequence: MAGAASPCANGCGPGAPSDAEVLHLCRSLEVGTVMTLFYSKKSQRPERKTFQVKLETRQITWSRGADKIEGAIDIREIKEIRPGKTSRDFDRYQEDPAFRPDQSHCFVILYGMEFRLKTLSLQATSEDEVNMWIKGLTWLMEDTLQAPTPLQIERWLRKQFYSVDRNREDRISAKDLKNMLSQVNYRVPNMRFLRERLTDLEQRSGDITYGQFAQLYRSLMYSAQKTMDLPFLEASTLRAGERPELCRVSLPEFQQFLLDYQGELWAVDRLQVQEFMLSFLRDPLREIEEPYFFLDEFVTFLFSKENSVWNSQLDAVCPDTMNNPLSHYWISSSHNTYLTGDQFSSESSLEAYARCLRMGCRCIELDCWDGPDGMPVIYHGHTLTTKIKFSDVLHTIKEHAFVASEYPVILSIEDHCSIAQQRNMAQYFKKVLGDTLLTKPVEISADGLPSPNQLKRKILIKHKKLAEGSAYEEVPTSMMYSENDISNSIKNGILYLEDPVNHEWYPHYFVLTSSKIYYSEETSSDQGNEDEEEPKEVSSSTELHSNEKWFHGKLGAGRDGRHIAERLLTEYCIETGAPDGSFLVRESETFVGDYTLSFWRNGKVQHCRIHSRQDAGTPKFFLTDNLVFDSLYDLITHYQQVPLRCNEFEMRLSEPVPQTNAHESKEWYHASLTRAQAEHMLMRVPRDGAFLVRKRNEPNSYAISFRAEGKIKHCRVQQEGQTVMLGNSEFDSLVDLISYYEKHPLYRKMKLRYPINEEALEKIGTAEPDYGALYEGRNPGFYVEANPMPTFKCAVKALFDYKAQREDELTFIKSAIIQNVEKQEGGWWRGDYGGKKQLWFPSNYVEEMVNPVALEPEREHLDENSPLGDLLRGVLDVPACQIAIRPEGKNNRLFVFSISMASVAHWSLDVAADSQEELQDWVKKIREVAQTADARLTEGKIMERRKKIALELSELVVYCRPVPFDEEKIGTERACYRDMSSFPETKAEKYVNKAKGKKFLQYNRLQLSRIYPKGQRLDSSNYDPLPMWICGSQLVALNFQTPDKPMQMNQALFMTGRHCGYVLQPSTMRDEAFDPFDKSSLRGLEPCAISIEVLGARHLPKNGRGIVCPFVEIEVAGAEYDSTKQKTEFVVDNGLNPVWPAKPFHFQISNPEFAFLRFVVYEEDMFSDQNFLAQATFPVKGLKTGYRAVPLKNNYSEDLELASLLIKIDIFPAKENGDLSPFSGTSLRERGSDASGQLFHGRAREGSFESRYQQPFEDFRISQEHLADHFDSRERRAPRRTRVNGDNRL

Substance	effect of a mutation on the interaction
Ras-related C3 botulinum toxin substrate 1 (Homo sapiens) (from UniProt P63000) P106A	disrupting interaction
Ras-related C3 botulinum toxin substrate 1 (Homo sapiens) (from UniProt P63000) P109A	disrupting interaction
